This is an account of results in patent US20050260730A1, “CDK2/cyclin A crystals and uses thereof” (priority 2003, published 2005).

Non-standard residues stand in square brackets, D forms with d. Phe(4-F) = N[C@@H](Cc1ccc(F)cc1)C(=O)O

In this assay the target is cyclin A (human) (UniProt P20248). The experiment in a line: competitive cyclin A binding assay.

H-RRL[Phe(4-F)]-NH2 registered an IC50 of 19 µM.
